Results published in the emibetuzumab library of Makowski et al. (2022).

B1: VH:VL chains; a variant is named by its letters at X, in order (parent)
chain 1: QVQLVQSGAEVKKPGASVKVSCKASGYTFTDYXMHWVRQAPGQGLEWMGXVNPNXXXTTYNQKFEGRVTMTTDTSTSTAYMELRSLRSDDTAVYYCARXNXLDXWGQGTTVTVSS
chain 2: DIQMTQSPSSLSASVGDRVTITCSVSSSVSSIYLHWYQQKPGKAPKLLIYSTSNLASGVPSRFSGSGSGTDFTLTISSLQPEDFATYYCQVYSGYPLTFGGGTKVEIK

Variants of: B1
Experiment: yeast display scFab, FACS + sequencing
Method in brief: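 The non-specific binding call was based on sorted and sequenced yeast displaying a heavy-chain CDR mutant scFab library. Labelling used anti-Myc with biotinylated ovalbumin (260 μg/mL in PBSB, 3 h, room temperature) or soluble membrane proteins (130 μg/mL, 20 min on ice), and FACS collected the top 25% and bottom 10% of binders in two replicates. Positive meant present in ≥3 of 4 pooled positive samples and in no negatives, and negative meant the converse.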

| Variant | non-specific binding call |
| --- | --- |
| YKRAAVWD | binds |
| FKTKDSVV | binds |
| YKRGDAGY | no binding |
| SKKRGSGA | binds |
| SKKRGSWD | binds |
| FKRRSFGS | binds |
| YKTRGSLD | binds |
| VKRGSSLF | binds |
| YKRAAYGD | binds |
| VKTKGVVD | binds |
| FKRGSSAA | binds |
| YKTGSSWD | binds |
| FKTRDFAY | binds |
| FKRAGSLA | binds |
| YKKGSSLF | binds |
| YKTRSSAD | binds |
| AKTGNDVA | no binding |
| FKKGSAVV | binds |
| FKKGSAVA | binds |
| DKTKSDWV | no binding |
| YKKTGYWV | binds |
| YKRGSFGA | binds |
| FRAEGSVA | binds |
| YKREGSAV | no binding |
| AKTKSDWV | no binding |

| Variant | non-specific binding call |
| --- | --- |
| VRAGADSV | no binding |
| FKRGDAGD | binds |
| FKRGSSSY | binds |
| VKKGSSLF | binds |
| VKTGGAWY | no binding |
| VKRGSAAA | binds |
| VKRGSAAV | binds |
| YKRGDSGF | no binding |
| FKRKAAAA | binds |
| YKTRSAWS chain 1 M48I | binds |
| YRAGAASD | binds |
| VKREASVV | binds |
| YRAGAAVA | binds |
| YRAETDVA | no binding |
| DKTGDDVF | no binding |
| FKTKNYAD | binds |
| YKRGDASS | no binding |
| VKRGSSSD | binds |
| YKRRDAWV | binds |
| SKKRGASA | binds |
| FKTESAAV | binds |
| FKKGDAVS | binds |
| ARAAGDVF | no binding |
| YKTRGFGA | binds |
| YKKGAAGF | binds |

| Variant | non-specific binding call |
| --- | --- |
| YKRRDASD | binds |
| FKKGSSLD | binds |
| AKTGDSSD | no binding |
| VKKTGSGA | binds |
| FKKGSYVF | binds |
| VKTGGSLD | no binding |
| DKREADGA | no binding |
| YRAAGAGS | binds |
| VKTGGAGA | no binding |
| YKTGDSVD | no binding |
| YRAAGSGA | binds |
| YKTRDDAV | no binding |
| FKKKDASV | binds |
| VRAEASVV | binds |
| VKRRDSGD | binds |
| ARAAGDWV | no binding |
| SKRRSVGA | binds |
| VKRATSWD | binds |
| VRAGADVD | no binding |
| VRAGADVA | no binding |
| YKTRGAVS | binds |
| FKTEGFVS | binds |
| FKKGSFGA | binds |
| FKRRDSVY | binds |
| YKRGGAAA | binds |

| Variant | non-specific binding call |
| --- | --- |
| YKRGSSVV | binds |
| YKRGSSVS | binds |
| YKRGSSVD | binds |
| YKTKSDWV | no binding |
| DKTKGDWV | no binding |
| DKTGDDGS | no binding |
| YKRGSFVD | binds |
| YRAAGDVA | no binding |
| YKRGGSSY | no binding |
| YKRGAAGD | binds |
| DKTGDAAV | no binding |
| YRAESAAA | binds |
| AKRGAFAD | binds |
| VRAGADGV | no binding |
| DKRKGVSD chain 1 S88F | binds |
| YKTGGALY | no binding |
| VRAGAAGS | no binding |
| VRAGAAGV | binds |
| YKRRNSGD | binds |
| SKTKSDWA | no binding |
| YKRESAAV | binds |
| FKRRSASV | binds |
| SKTRAFVA | binds |
| YKRGSAAA | binds |
| YKRGGSGD | binds |

| Variant | non-specific binding call |
| --- | --- |
| FKTAGSAV chain 1 R67H | binds |
| ARAASAGA | binds |
| AKTRDFVA | binds |
| YKRGSAVD | binds |
| FKTKNYVV | binds |
| DRAETDVY | no binding |
| YKKRGAGV | binds |
| YKRGDAWD | no binding |
| YKRGDAWA | no binding |
| DKTGNDVV | no binding |
| DKTGNDVA | no binding |
| VKRGDDVA | no binding |
| VKRGDDVV | no binding |
| AKKRGAWS | binds |
| SKRKSSSD | binds |
| YKRGDSSS | no binding |
| YKTKSDGV | no binding |
| VRAETDVY | no binding |
| YRAAGSWS | binds |
| FKKGSSGV | binds |
| FKKGSSGD | binds |
| FKRKNSAA | binds |
| VKRGSSAA | binds |
| YKRGDDGD | no binding |
| YKRRSASA | binds |

| Variant | non-specific binding call |
| --- | --- |
| YRAEGALD | binds |
| YRAEGYVV | binds |
| SKTRGAWD | binds |
| YKRGASVA | binds |
| SKTKSSGA | no binding |
| YKTGDDGV | no binding |
| SKRRGSLS | binds |
| SKTKSSAS | no binding |
| FKTKSAGD | no binding |
| SKKTGDLY | no binding |
| SKKGDFWV | binds |
| YKRGGAGS | binds |
| YKTRGAGD chain 1 Q43R | no binding |
| SKKTGSVD | no binding |
| YKTKGSSY | binds |
| SKTKSDGA | no binding |
| SKTKSDGV | no binding |
| SKTKSDGS | no binding |
| FKKGSAAV | binds |
| VKRRSVGA | binds |
| YKTESYWY | binds |
| SKTKSDVD | no binding |
| SKTKSDVV | no binding |
| SKTKSDVA | no binding |
| SKTKSSSA | no binding |

| Variant | non-specific binding call |
| --- | --- |
| FKTKSDAV | no binding |
| FKRRSSGD | binds |
| YKRGSAGF | binds |
| YKRGSAGD | binds |
| VKRGSSVD | binds |
| YKTGNDVA | no binding |
| YKTGDSWV | no binding |
| FKTGDAWS | binds |
| VRAEGSSV | no binding |
| SKRETAWS | binds |
| YKRRSSVF | binds |
| VKREAVGV | binds |
| YKTGGAGV | binds |
| SKRKSSGA | binds |
| YRAETDGV | no binding |
| YKRRGSAA | binds |
| VKRATVLA | binds |
| YKRGDDSS | no binding |
| VKRRSSLA | binds |
| VRAGADAV | no binding |
| YKTRGSAA | binds |
| YKTRGSAD | binds |
| YKRESAGY | binds |
| YKRGSAWV | binds |
| YKRGSAWD | binds |

| Variant | non-specific binding call |
| --- | --- |
| YKRGAAWS | binds |
| SKKRGAWA | binds |
| SKKRGAWY | binds |
| VKTGGAVV | no binding |
| VKTGGDGD | no binding |
| YKRGSSSY | binds |
| YKRGSSSD | binds |
| YKTRSAVA | binds |
| DKKKDVVF | binds |
| YRAEGSSS | binds |
| YKTGGASS | binds |
| YKKTGDLY | no binding |
| FKKGSSWD | binds |
| YKRGGAVV | binds |
| YKRGSSWD | binds |
| VKKTGDLY | no binding |
| ARAETDVY | no binding |
| FKKGSSAA | binds |
| VKKRGAWS | binds |
| YKRKSASD | binds |
| VKTGGSWV | no binding |
| VKTGGSWA | no binding |
| DKTGDSAD | no binding |
| YKRGGSWD | binds |
| VKRGSSGD | binds |

| Variant | non-specific binding call |
| --- | --- |
| VKRGSSGA | binds |
| YRAESSGV | binds |
| AKRGSAAV | binds |
| YKRGASLA | binds |
| FKRRSVGA | binds |
| VRAEGSVA | binds |
| YKRRDFGV | binds |
| YKRGSASD | binds |
| YKRGSASV | binds |
| VKRGSFVD | binds |
| VKTGGDVY | no binding |
| VKTGGDVA | no binding |
| VKTGGDVF | no binding |
| YKKGGSGV | binds |
| AKTRDDVA | no binding |
| YKRGDAVF | no binding |
| FKRGSSLF | binds |
| FKRGSSLD | binds |
| AKTKSDVA | no binding |
| SKKRGAAA | binds |
| YMAEGSGA | binds |
| YKTGGSGA | binds |
| YKRGSDGA | binds |
| YKRGSSGF | binds |
| YKRGSSGA | binds |

| Variant | non-specific binding call |
| --- | --- |
| YKRGSSGD | binds |
| YRAEGAWS | binds |
| SKTKSDAV | no binding |
| DKRKGVAF | binds |
| SKTRGAGV | binds |
| FKKGSVGD | binds |
| YKRRDSVD | binds |
| YKKRGAWS | binds |
| YKKGGSLA | binds |
| YKKGGSLD | binds |
| FKTGGAAV | binds |
| YKRESSSV | binds |
| DKREADVA | no binding |
| YKRGDDLV | no binding |
| YKRRDAVY | binds |
| FRAEGSLD | binds |
| YKTGGDGV | no binding |
| FKKRGAWS | binds |
| AKTKSDGV | no binding |
